Experimental data: US20070128192A1 (AstraZeneca / MedImmune, published 2007)
Read-outs that look alike come from different tables or passages of the source.

Key:
murine IL-13 [1] = target: T1, murine IL-13 (mouse, UniProt P20109 21-131, limits assumed); assay: cell-based or functional assay
T1 sequence (looked up): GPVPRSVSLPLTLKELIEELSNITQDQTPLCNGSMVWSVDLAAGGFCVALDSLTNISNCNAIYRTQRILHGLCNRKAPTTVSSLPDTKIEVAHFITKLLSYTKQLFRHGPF

murine IL-13 [2] = target: T1, murine IL-13; assay: BIAcore, IgG4 coupled to CM5 chip, murine IL-13 passed over
[3] = target: T2, non-human primate IL-13 (rhesus and cynomolgus, identical), baculovirus expressed, carboxyl terminus affinity … (rhesus and cynomolgus monkey, UniProt Q5I6E4 21-132 (Macaca thibetana entry)); assay: cell-based or functional assay
T2 chain: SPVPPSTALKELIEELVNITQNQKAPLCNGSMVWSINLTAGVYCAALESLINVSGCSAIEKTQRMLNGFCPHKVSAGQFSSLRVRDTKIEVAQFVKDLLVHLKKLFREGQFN

[4] = target: T3, wild type human IL-13, baculovirus expressed, carboxyl terminus affinity tag (human, UniProt P35225 33-146); assay: cell-based or functional assay
human IL-13 [5] = target: T4, human IL-13 (human, UniProt P35225 15-146); assay: cell-based or functional assay
[6] = target: T2, non-human primate IL-13 (rhesus and …); assay: cell-based or functional assay
[7] = target: native (naturally occurring) human IL-13 released from HDLM-2 cells (human, UniProt P35225 15-146); assay: cell-based or functional assay
[8] = target: human IL-13 variant (Q130R), baculovirus expressed, carboxyl terminus affinity tag (human, UniProt P35225 33-146); assay: cell-based or functional assay
[9] = target: T3, wild type human IL-13, baculovirus …; assay: cell-based or functional assay; remark: listed apart in the source
human IL-13 [10] = target: T4, human IL-13; assay: BIAcore, IgG coupled to CM5 chip, IL-13 50 nM to 0.78 nM passed over
human IL-13 [11] = target: T4, human IL-13; assay: cell-based or functional assay; remark: listed apart in the source

human IL-13 variant (Q130R), baculovirus expressed, carboxyl terminus affinity tag, sequence (P35225 33-146 limits assumed, stated change not applied, form in doubt): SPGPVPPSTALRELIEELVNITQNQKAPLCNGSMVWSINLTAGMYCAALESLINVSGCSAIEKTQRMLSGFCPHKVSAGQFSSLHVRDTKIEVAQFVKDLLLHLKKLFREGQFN
T4 sequence (P35225 other isoform, or with tags, fused parts or gaps): as the sequence (P35225 33-146 limits assumed, stated change not applied, form in doubt) above, with Q112R counted along it
T3 sequence (P35225 other isoform, or with tags, fused parts or gaps): as the sequence (P35225 33-146 limits assumed, stated change not applied, form in doubt) above, with Q112R counted along it
native (naturally occurring) human IL-13 released from HDLM-2 cells, sequence (P35225 other isoform, or with tags, fused parts or gaps): as the sequence (P35225 33-146 limits assumed, stated change not applied, form in doubt) above, with Q112R counted along it

B1: BAK209B11 scFv (scFv, V domains shown)
VH: VQLQESGGGGLVQPGGSLRLSCAASGFTFSSYGMSWVRQAPGKGLEWVSSISASGDSTFYADSVKGRFTISRDNNKNMVFLQVNSLRADDTAVYFCAKDWSQWLVGDAFDVWGRGTTVTVSS
VL: DIQLTQSPSTLSASVGDRVTITCRASQSVSLWVAWYQQRPGKAPKLLIYDGSTLQSGVPARFSGSGSGTEFTLTISSLQPDDFATYYCQQYKTFSTFGQGTKVEIK
- IC50, TF-1 cell proliferation assay (murine IL-13 [1]): 185 nM

B2: BAK209B11 human IgG4 (antibody, V domains shown)
VH: VQLQESGGGGLVQPGGSLRLSCAASGFTFSSYGMSWVRQAPGKGLEWVSSISASGDSTFYADSVKGRFTISRDNNKNMVFLQVNSLRADDTAVYFCAKDWSQWLVGDAFDVWGRGTTVTVSS
VL: DIQLTQSPSTLSASVGDRVTITCRASQSVSLWVAWYQQRPGKAPKLLIYDGSTLQSGVPARFSGSGSGTEFTLTISSLQPDDFATYYCQQYKTFSTFGQGTKVEIKR
- Kd (murine IL-13 [2]): 5.1 nM
- koff (murine IL-13 [2]): 0.0198 s⁻¹
- kon (murine IL-13 [2]): 3.9e+06 M⁻¹ s⁻¹
- IC50, B9 cell proliferation assay (murine IL-13 [1]): 0.776 nM

B3: BAK278D6 scFv (scFv, V domains shown)
VH: EVQLVQSGAEVKKPGASVKVSCKASGYTFRNYGLSWVRQAPGQGLEWMGWISANNGDTNYGQEFQGRITMTTETSTNTAHMELRSLRSDDTAVYYCVRDSSSNWARWFFDLWGKGTMVTVSS
VL: SYVLTQPPSVSVAPGQTARIPCGGNNIGSKLVHWYQQKPGQAPVLVVYDDGDRPSGIPERFSGSNSGNTATLTISRIDAGDEADYYCQVWDTGSDPVVFGGGTKLTVL
- IC50 (read off the curve); TF-1 cell proliferation, 50 ng/ml non-human primate IL-13 [3]: ~90 nM
- IC50 (read off the curve); TF-1 cell proliferation, 25 ng/ml human IL-13 [4]: ~70 nM
- IC50, TF-1 cell proliferation assay (human IL-13 [5]): 44 nM

B4: BAK502G9 IgG4 (antibody, V domains shown)
VH: QVQLVQSGAEVKKPGASVKVSCKASGYTFTNYGLSWVRQAPGQGLEWMGWISANNGDTNYGQEFQGRVTMTTDTSTSTAYMELRSLRSDDTAVYYCARDSSSSWARWFFDLWGRGTLVTVSS
VL: SYVLTQPPSVSVAPGKTARITCGGNIIGSKLVHWYQQKPGQAPVLVIYDDGDRPSGIPERFSGSNSGNTATLTISRVEAGDEADYYCQVWDTGSDPVVFGGGTKLTVL
- IC50, TF-1 cell proliferation assay [6]: 2 nM
- IC50, HDLM-2 cell proliferation assay [7]: 4.6 nM
- IC50, TF-1 cell proliferation assay [8]: 1.9 nM

B5: BAK1183H4 IgG4 (antibody, V domains shown)
VH: QVQLVQSGAEVKKPGASVKVSCKASGYTFTNYGLSWVRQAPGQGLEWMGWINYDGGNTQYGQEFQGRVTMTTDTSTSTAYMELRSLRSDDTAVYYCARDSSSSWARWFFDLWGRGTLVTVSS
VL: SYVLTQPPSVSVAPGKTARITCGGNIIGSKLVHWYQQKPGQAPVLVIYDDGDRPSGIPERFSGSNSGNTATLTISRVEAGDEADYYCQVWDTGSDPVVFGGGTKLTVL
- IC50, TF-1 cell proliferation assay [9]: 0.9 nM
- IC50, HDLM-2 cell proliferation assay [7]: 3.5 nM
- IC50, TF-1 cell proliferation assay [8]: 1 nM

B6: BAK1167F2 IgG4 (antibody, V domains shown)
VH: QVQLVQSGAEVKKPGASVKVSCKASGYTFEQTGVSWVRQAPGQGLEWMGWISANNGDTNYGQEFQGRVTMTTDTSTSTAYMELRSLRSDDTAVYYCARDSSSSWARWFFDLWGRGTLVTVSS
VL: SYVLTQPPSVSVAPGKTARITCGGNIIGSKLVHWYQQKPGQAPVLVIYDDGDRPSGIPERFSGSNSGNTATLTISRVEAGDEADYYCQVWDTGSDPVVFGGGTKLTVL
- IC50, TF-1 cell proliferation assay [9]: 1 nM
- IC50, HDLM-2 cell proliferation assay [7]: 1.1 nM
- IC50, TF-1 cell proliferation assay [8]: 1.1 nM

B7: BAK278D6 IgG (antibody, V domains shown)
VH: EVQLVQSGAEVKKPGASVKVSCKASGYTFRNYGLSWVRQAPGQGLEWMGWISANNGDTNYGQEFQGRITMTTETSTNTAHMELRSLRSDDTAVYYCVRDSSSNWARWFFDLWGKGTMVTVSS
VL: SYVLTQPPSVSVAPGQTARIPCGGNNIGSKLVHWYQQKPGQAPVLVVYDDGDRPSGIPERFSGSNSGNTATLTISRIDAGDEADYYCQVWDTGSDPVVFGGGTKLTVL
- Kd (human IL-13 [10]): 13.5 nM
- koff (human IL-13 [10]): 0.00741 s⁻¹
- kon (human IL-13 [10]): 549000 M⁻¹ s⁻¹

B8: BAK615E3 scFv (scFv, V domains shown)
VH: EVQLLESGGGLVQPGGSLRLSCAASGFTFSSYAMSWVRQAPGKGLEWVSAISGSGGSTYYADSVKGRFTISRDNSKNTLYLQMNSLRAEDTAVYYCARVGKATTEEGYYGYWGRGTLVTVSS
VL: NFMLTQPHSVSESPGKTVTISCTRSSGSIASNYVQWYQQRPGSAPTTVIYDDNQRPSGVPDRFSGSIDSSSNSASLTISGLKTEDEADYYCQSYDSNNDVFGGGTKVTVL
- IC50, TF-1 cell proliferation assay (human IL-13 [11]): 3 nM
